Source: US20040072207A1 (WHITEHEAD INSTITUTE FOR BIOMEDICAL RESEARCH, published 2004)

Target: mTOR (mammalian target of rapamycin), endogenous protein of human cell lines (human, UniProt P42345 1-2549)
Experiment: anti-HA immunoprecipitates from transfected HEK293T cells, mTOR western blot (FIG. 6B)
Procedure: 3 million HEK293T cells in 6-cm dishes were transfected with plasmid constructs and amounts indicated in the Figure legends using the Lipofectamine 2000 transfection reagent (Life Technology). 24 hours after DNA addition, cells were rinsed once with PBS and lysed in 300 μl of ice-cold Buffer B. Immune complexes were prepared from cleared supernatants using 3 μg polyclonal anti-myc or monoclonal anti-HA antibodies and 20 μl of a 50% slurry protein G-Sepharose. After a 3 hour incubation, immuneprecipitates were washed six times with Buffer B and twice with Wash Buffer 2. Bound proteins were eluted in 1× sample buffer, and mTOR or HA- or myc-tagged proteins were detected by immunoblotting as described (Burnett et al., PNAS 95:1432-143 (1998)).

| Binder | binding result |
| --- | --- |
| HA-raptor mut2 (261DLF263-AAA) (other, not shown: small tags and cut ends) MESEMLQSPLLGLGEEDEADLTDWNLPLAFMKKRHCEKIEGSKSLAQSWRMKDRMKTVSVALVLCLNVGVDPPDVVKTTPCARLECWIDPLSMGPQKALETIGANLQKQYENWQPRARYKQSLDPTVDEVKKLCTSLRRNAKEERVLFHYNGHGVPRPTVNGEVWVFNKNYTQYIPLSIYDLQTWMGSPSIFVYDCSNAGLIVKSFKQFALQREQELEVAAINPNHPLAQMPLPPSMKNCIQLAACEATELLPMIPDLPAAAATSCLTTPIKIALRWFCMQKCVSLVPGVTLDLIEKIPGRLNDRRTPLGELNWIFTAITDTIAWNVLPRDLFQKLFRQDLLVASLFRNFLLAERIMRSYNCTPVSSPRLPPTYMHAMWQAWDLAVDICLSQLPTIIEEGTAFRHSPFFAEQLTAFQVWLTMGVENRNPPEQLPIVLQVLLSQVHRLRALDLLGRFLDLGPWAVSLALSVGIFPYVLKLLQSSARELRPLLVFIWAKILAVDSSCQADLVKDNGHKYFLSVLADPYMPAEHRTMTAFILAVIVNSYHTGQEACLQGNLIAICLEQLNDPHPLLRQWVAICLGRIWQNFDSARWCGVRDSAHEKLYSLLSDPIPEVRCAAVFALGTFVGNSAERTDHSTTIDHNVAMMLAQLVSDGSPMVRKELVVALSHLVVQYESNFCTVALQFIEEEKNYALPSPATTEGGSLTPVRDSPCTPRLRSVSSYGNIRAVATARSLNKSLQNLSLTEESGGAVAFSPGNLSTSSSASSTLGSPENEEHILSFETIDKMRRASSYSSLNSLIGVSFNSVYTQIWRVLLHLAADPYPEVSDVAMKVLNSIAYKATVNARPQRVLDTSSLTQSAPASPTNKGVHIHQAGGSPPASSTSSSSLTNDVAKQPVSRDLPSGRPGTTGPAGAQYTPHSHQFPRTRKMFDKGPEQTADDADDAAGHKSFISATVQTGFCDWSARYFAQPVMKIPEEHDLESQIRKEREWRFLRNSRVRRQAQQVIQKGITRLDDQIFLNRNPGVPSVVKFHPFTPCIAVADKDSICFWDWEKGEKLDYFHNGNPRYTRVTAMEYLNGQDCSLLLTATDDGAIRVWKNFADLEKNPEMVTAWQGLSDMLPTTRGAGMVVDWEQETGLLMSSGDVRIVRIWDTDREMKVQDIPTGADSCVTSLSCDSHRSLIVAGLGDGSIRVYDRRMALSECRVMTYREHTAWVVKASLQKRPDGHIVSVSVNGDVRIFDPRMPESVNVLQIVKGLTALDIHPQADLIACGSVNQFTAIYNSSGELINNIKYYDGFMGQRVGAISCLAFHPHWPHLAVGSNDYYISVYSVEKRVR | no binding |
| HA-raptor mut 7 (738SLQN741-PAAA) (other, not shown: small tags and cut ends, also called mutant 7) MESEMLQSPLLGLGEEDEADLTDWNLPLAFMKKRHCEKIEGSKSLAQSWRMKDRMKTVSVALVLCLNVGVDPPDVVKTTPCARLECWIDPLSMGPQKALETIGANLQKQYENWQPRARYKQSLDPTVDEVKKLCTSLRRNAKEERVLFHYNGHGVPRPTVNGEVWVFNKNYTQYIPLSIYDLQTWMGSPSIFVYDCSNAGLIVKSFKQFALQREQELEVAAINPNHPLAQMPLPPSMKNCIQLAACEATELLPMIPDLPADLFTSCLTTPIKIALRWFCMQKCVSLVPGVTLDLIEKIPGRLNDRRTPLGELNWIFTAITDTIAWNVLPRDLFQKLFRQDLLVASLFRNFLLAERIMRSYNCTPVSSPRLPPTYMHAMWQAWDLAVDICLSQLPTIIEEGTAFRHSPFFAEQLTAFQVWLTMGVENRNPPEQLPIVLQVLLSQVHRLRALDLLGRFLDLGPWAVSLALSVGIFPYVLKLLQSSARELRPLLVFIWAKILAVDSSCQADLVKDNGHKYFLSVLADPYMPAEHRTMTAFILAVIVNSYHTGQEACLQGNLIAICLEQLNDPHPLLRQWVAICLGRIWQNFDSARWCGVRDSAHEKLYSLLSDPIPEVRCAAVFALGTFVGNSAERTDHSTTIDHNVAMMLAQLVSDGSPMVRKELVVALSHLVVQYESNFCTVALQFIEEEKNYALPSPATTEGGSLTPVRDSPCTPRLRSVSSYGNIRAVATARSLNKPAAALSLTEESGGAVAFSPGNLSTSSSASSTLGSPENEEHILSFETIDKMRRASSYSSLNSLIGVSFNSVYTQIWRVLLHLAADPYPEVSDVAMKVLNSIAYKATVNARPQRVLDTSSLTQSAPASPTNKGVHIHQAGGSPPASSTSSSSLTNDVAKQPVSRDLPSGRPGTTGPAGAQYTPHSHQFPRTRKMFDKGPEQTADDADDAAGHKSFISATVQTGFCDWSARYFAQPVMKIPEEHDLESQIRKEREWRFLRNSRVRRQAQQVIQKGITRLDDQIFLNRNPGVPSVVKFHPFTPCIAVADKDSICFWDWEKGEKLDYFHNGNPRYTRVTAMEYLNGQDCSLLLTATDDGAIRVWKNFADLEKNPEMVTAWQGLSDMLPTTRGAGMVVDWEQETGLLMSSGDVRIVRIWDTDREMKVQDIPTGADSCVTSLSCDSHRSLIVAGLGDGSIRVYDRRMALSECRVMTYREHTAWVVKASLQKRPDGHIVSVSVNGDVRIFDPRMPESVNVLQIVKGLTALDIHPQADLIACGSVNQFTAIYNSSGELINNIKYYDGFMGQRVGAISCLAFHPHWPHLAVGSNDYYISVYSVEKRVR | binds |

More lines, now with the values ahead:

| binding result | Binder |
| --- | --- |
| no binding | HA-raptor mut3 (313NWIF316-AAAA) (other, not shown: small tags and cut ends) MESEMLQSPLLGLGEEDEADLTDWNLPLAFMKKRHCEKIEGSKSLAQSWRMKDRMKTVSVALVLCLNVGVDPPDVVKTTPCARLECWIDPLSMGPQKALETIGANLQKQYENWQPRARYKQSLDPTVDEVKKLCTSLRRNAKEERVLFHYNGHGVPRPTVNGEVWVFNKNYTQYIPLSIYDLQTWMGSPSIFVYDCSNAGLIVKSFKQFALQREQELEVAAINPNHPLAQMPLPPSMKNCIQLAACEATELLPMIPDLPADLFTSCLTTPIKIALRWFCMQKCVSLVPGVTLDLIEKIPGRLNDRRTPLGELAAAATAITDTIAWNVLPRDLFQKLFRQDLLVASLFRNFLLAERIMRSYNCTPVSSPRLPPTYMHAMWQAWDLAVDICLSQLPTIIEEGTAFRHSPFFAEQLTAFQVWLTMGVENRNPPEQLPIVLQVLLSQVHRLRALDLLGRFLDLGPWAVSLALSVGIFPYVLKLLQSSARELRPLLVFIWAKILAVDSSCQADLVKDNGHKYFLSVLADPYMPAEHRTMTAFILAVIVNSYHTGQEACLQGNLIAICLEQLNDPHPLLRQWVAICLGRIWQNFDSARWCGVRDSAHEKLYSLLSDPIPEVRCAAVFALGTFVGNSAERTDHSTTIDHNVAMMLAQLVSDGSPMVRKELVVALSHLVVQYESNFCTVALQFIEEEKNYALPSPATTEGGSLTPVRDSPCTPRLRSVSSYGNIRAVATARSLNKSLQNLSLTEESGGAVAFSPGNLSTSSSASSTLGSPENEEHILSFETIDKMRRASSYSSLNSLIGVSFNSVYTQIWRVLLHLAADPYPEVSDVAMKVLNSIAYKATVNARPQRVLDTSSLTQSAPASPTNKGVHIHQAGGSPPASSTSSSSLTNDVAKQPVSRDLPSGRPGTTGPAGAQYTPHSHQFPRTRKMFDKGPEQTADDADDAAGHKSFISATVQTGFCDWSARYFAQPVMKIPEEHDLESQIRKEREWRFLRNSRVRRQAQQVIQKGITRLDDQIFLNRNPGVPSVVKFHPFTPCIAVADKDSICFWDWEKGEKLDYFHNGNPRYTRVTAMEYLNGQDCSLLLTATDDGAIRVWKNFADLEKNPEMVTAWQGLSDMLPTTRGAGMVVDWEQETGLLMSSGDVRIVRIWDTDREMKVQDIPTGADSCVTSLSCDSHRSLIVAGLGDGSIRVYDRRMALSECRVMTYREHTAWVVKASLQKRPDGHIVSVSVNGDVRIFDPRMPESVNVLQIVKGLTALDIHPQADLIACGSVNQFTAIYNSSGELINNIKYYDGFMGQRVGAISCLAFHPHWPHLAVGSNDYYISVYSVEKRVR |
| no binding | HA-raptor mut 9 (1191RVYDRR1196-DAAADD) (other, not shown: small tags and cut ends) MESEMLQSPLLGLGEEDEADLTDWNLPLAFMKKRHCEKIEGSKSLAQSWRMKDRMKTVSVALVLCLNVGVDPPDVVKTTPCARLECWIDPLSMGPQKALETIGANLQKQYENWQPRARYKQSLDPTVDEVKKLCTSLRRNAKEERVLFHYNGHGVPRPTVNGEVWVFNKNYTQYIPLSIYDLQTWMGSPSIFVYDCSNAGLIVKSFKQFALQREQELEVAAINPNHPLAQMPLPPSMKNCIQLAACEATELLPMIPDLPADLFTSCLTTPIKIALRWFCMQKCVSLVPGVTLDLIEKIPGRLNDRRTPLGELNWIFTAITDTIAWNVLPRDLFQKLFRQDLLVASLFRNFLLAERIMRSYNCTPVSSPRLPPTYMHAMWQAWDLAVDICLSQLPTIIEEGTAFRHSPFFAEQLTAFQVWLTMGVENRNPPEQLPIVLQVLLSQVHRLRALDLLGRFLDLGPWAVSLALSVGIFPYVLKLLQSSARELRPLLVFIWAKILAVDSSCQADLVKDNGHKYFLSVLADPYMPAEHRTMTAFILAVIVNSYHTGQEACLQGNLIAICLEQLNDPHPLLRQWVAICLGRIWQNFDSARWCGVRDSAHEKLYSLLSDPIPEVRCAAVFALGTFVGNSAERTDHSTTIDHNVAMMLAQLVSDGSPMVRKELVVALSHLVVQYESNFCTVALQFIEEEKNYALPSPATTEGGSLTPVRDSPCTPRLRSVSSYGNIRAVATARSLNKSLQNLSLTEESGGAVAFSPGNLSTSSSASSTLGSPENEEHILSFETIDKMRRASSYSSLNSLIGVSFNSVYTQIWRVLLHLAADPYPEVSDVAMKVLNSIAYKATVNARPQRVLDTSSLTQSAPASPTNKGVHIHQAGGSPPASSTSSSSLTNDVAKQPVSRDLPSGRPGTTGPAGAQYTPHSHQFPRTRKMFDKGPEQTADDADDAAGHKSFISATVQTGFCDWSARYFAQPVMKIPEEHDLESQIRKEREWRFLRNSRVRRQAQQVIQKGITRLDDQIFLNRNPGVPSVVKFHPFTPCIAVADKDSICFWDWEKGEKLDYFHNGNPRYTRVTAMEYLNGQDCSLLLTATDDGAIRVWKNFADLEKNPEMVTAWQGLSDMLPTTRGAGMVVDWEQETGLLMSSGDVRIVRIWDTDREMKVQDIPTGADSCVTSLSCDSHRSLIVAGLGDGSIDAAADDMALSECRVMTYREHTAWVVKASLQKRPDGHIVSVSVNGDVRIFDPRMPESVNVLQIVKGLTALDIHPQADLIACGSVNQFTAIYNSSGELINNIKYYDGFMGQRVGAISCLAFHPHWPHLAVGSNDYYISVYSVEKRVR |
